Paper PMC12589211, “Development of lisinopril radioconjugates for nuclear imaging of the angiotensin converting enzyme” (European Journal of Nuclear Medicine and Molecular Imaging, 2025)

How the values were obtained:
[1] = in vivo; conditions: female, mouse, iv, 3 MBq; for tissue uptake at 1 h / tissue uptake at 3 h: total radioactivity
Procedure: All applicable international, national, and/or institutional guidelines for the care and use of laboratory animals were followed and the animal experiments were carried out according to the guidelines of the Swiss Regulations for Animal Welfare. Preclinical studies were ethically approved by the Cantonal Committee of Animal Experimentation and permitted by the responsible cantonal authorities (License N° 75743). Five-week-old female Crl: CD1-Foxn^nu (CD1/nude) mice were obtained from Charles River Laboratories (Sulzfeld, Germany) and fed with standard rodent chow ad libitum. The mice were subcutaneously inoculated with HEK-ACE (8 × 10^6 cells in 100 µL PBS) on the left shoulder and approximately one week later with HEK-ACE2 cells (4–6 × 10^6 cells in 100 µL PBS) on the right shoulder. Imaging and biodistribution studies were performed 2‒4 weeks later when the xenografts reached a size of 100–300 mm^3.
Mice were intravenously injected with 3 MBq [^67Ga]Ga-DOTA-LIS-02 or 3 MBq [^67Ga]Ga-NODAGA-LIS-02 (0.5 nmol, 100 µL) or 3 MBq [^44Sc]Sc-DOTA-LIS-02 (1 nmol, 100 µL) diluted in saline containing 0.05% bovine serum albumin (BSA). The mice were sacrificed 1 h and 3 h after administration of the respective radioconjugate. Selected tissues and organs were collected, weighed and counted for activity using the γ-counter. The results were listed as a percentage of the injected activity per gram of tissue mass (% IA/g), using counts of a defined volume of the original injection solution measured at the same time to calculate decay-corrected values. Statistical analysis was performed by applying a regular one-way ANOVA test with a Tukey’s multiple comparison post‐hoc test to compare the data of the radioconjugates. A p-value of < 0.05 was considered as statistically significant (GraphPad Prism software, version 8.3.1).

[2] = system: human blood plasma proteins; assay: in vitro; type: in vitro ADME; conditions: 30 min, 0.1 µM
Procedure: (§1) The n-octanol/phosphate buffered saline (PBS) distribution coefficients (logD values) of the radioconjugates (20 MBq/nmol) were determined using the shake-flask method, as previously reported (Supplementary material). The binding affinity of the radioconjugates (20 MBq/nmol) to serum proteins was assessed using an ultrafiltration assay as previously reported (Supplementary Material). Methods: The plasma protein binding of the radioconjugates (20 MBq/nmol) was assessed using mouse blood plasma (Lot N°: 32321, Rockland Immunochemicals, Inc., USA,; concentration of mouse serum albumin (MSA): ⁓550 µM) and human blood plasma (Stiftung Blutspende SRK Aargau-Solothurn, Switzerland; concentration of human serum albumin (HSA): ⁓800 µM), respectively. After incubation in mouse and human blood plasma (0.3 MBq in 150 μL) for 30 min at 37 °C, the samples were cooled on ice and diluted with ice-cold PBS (150 μL). The plasma protein-bound fraction was separated from the free (plasma protein-unbound) fraction of each sample by means of Amicon centrifugal filters (Amicon Ultra, 0.5 mL, Merck Millipore; cutoff 10 kDa) by ultrafiltration using a centrifuge (14000 rcf, 30 min at 4 °C). Afterwards, the filter inserts were inverted and centrifuged again (200 rcf) for 3 min to recover the protein-bound fraction of the radioconjugates. The activities of the free radioconjugates in the filtrate, as well as in the filter insert and the plasma protein-bound radioconjugate (bound), were counted for activity separately using a γ-counter (Wallac Wizard 1480, PerkinElmer). The total activity (total) was determined as the sum of the activities in the filtrate, filter insert, and protein-bound fractions. The percentage of radioconjugate bound to MSA and HSA was calculated as Abound/Atotal*100. The results were presented as average ± SD of 3 independent experiments.

[3] = system: mouse blood plasma proteins; assay: in vitro; type: in vitro ADME; conditions: 30 min, 0.1 µM
Procedure: as §1

[4] = in vitro; type: in vitro ADME; conditions: plasma
Procedure: as §1

[5] = physchem; type: physicochemical; conditions: pH 7.4, logD value (n-octanol/PBS distribution coefficient)
Procedure: The n-octanol/phosphate buffered saline (PBS) distribution coefficients (logD values) of the radioconjugates (20 MBq/nmol) were determined using the shake-flask method, as previously reported (Supplementary material). The binding affinity of the radioconjugates (20 MBq/nmol) to serum proteins was assessed using an ultrafiltration assay as previously reported (Supplementary Material). Methods: A fixed amount of the respective radioconjugate (0.5 MBq, 25 µL) was added to radio-immunoassay (RIA) tubes containing a mixture of PBS pH 7.4 (1475 µL) and n-octanol (1500 µL). After vortexing vigorously for 1 min, the tubes were centrifuged (560 rcf) for 6 min to obtain phase separation. The activity in the organic and aqueous phases was determined using a γ-counter (Wallac Wizard 1480, PerkinElmer). The distribution coefficients were expressed as the logarithm of the ratio of counts per minute (cpm) measured in the n-octanol phase to the cpm measured in the PBS pH 7.4 phase and indicated as the average of three independent measurements ± SD, each performed with five replicates.

[6] = CD1/nude (Crl:CD1-Foxn nu), 1 h
[7] = CD1/nude (Crl:CD1-Foxn nu), 3 h
[8] = Crl:CD1-Foxn^nu (CD1/nude), 1 h
[9] = Crl:CD1-Foxn^nu (CD1/nude), 3 h
[10] = CD1/nude (Crl:CD1-Foxn nu), Biodistribution, Bone
[11] = CD1/nude (Crl:CD1-Foxn nu), Biodistribution, HEK-ACE xgft
[12] = CD1/nude (Crl:CD1-Foxn nu), Biodistribution, Muscle
[13] = CD1/nude (Crl:CD1-Foxn nu), Biodistribution, Salivary glands
[14] = CD1/nude (Crl:CD1-Foxn nu), Biodistribution, Stomach
[15] = Crl:CD1-Foxn^nu (CD1/nude), Biodistribution, Blood
[16] = Crl:CD1-Foxn^nu (CD1/nude), Biodistribution, Heart
[17] = Crl:CD1-Foxn^nu (CD1/nude), Biodistribution, Kidneys
[18] = Crl:CD1-Foxn^nu (CD1/nude), Biodistribution, Lung
[19] = Crl:CD1-Foxn^nu (CD1/nude), Biodistribution, Spleen
[20] = human, Fraction bound to human blood plasma proteins
[21] = mouse, Fraction bound to mouse blood plasma proteins
[22] = CD1/nude (Crl:CD1-Foxn nu), Biodistribution, Intestines
[23] = CD1/nude (Crl:CD1-Foxn nu), Biodistribution, Liver

Structure (SMILES): O=C(O)CN1CCN(CC(=O)O)CCN(CC(=O)NCCCC[C@H](NC(=O)CCCCCCCNC(=O)NCCCC[C@H](N[C@@H](CCc2ccccc2)C(=O)O)C(=O)N2CCC[C@H]2C(=O)O)C(=O)O)CCN(CC(=O)O)CC1 [[^44Sc]Sc-DOTA-LIS-02] [metal not drawn]
- Biodistribution, Blood [1, 6]: 0.24 ± 0.03 %IA/g
- Biodistribution, Bone [1, 6]: 0.17 ± 0.02 %IA/g
- Biodistribution, Intestines [1, 6]: 0.16 ± 0.02 %IA/g
- Biodistribution, Liver [1, 6]: 0.14 ± 0.01 %IA/g
- Biodistribution, Muscle [1, 6]: 0.16 ± 0.02 %IA/g
- Biodistribution, Salivary glands [1, 6]: 0.19 ± 0.02 %IA/g
- Biodistribution, Stomach [1, 6]: 0.22 ± 0.15 %IA/g
- Biodistribution, Bone [1, 7]: 0.07 ± 0.03 %IA/g
- Biodistribution, Intestines [1, 7]: 0.05 ± 0.01 %IA/g
- Biodistribution, Liver [1, 7]: 0.09 ± 0.01 %IA/g
- Biodistribution, Muscle [1, 7]: 0.07 ± 0.04 %IA/g
- Biodistribution, Salivary glands [1, 7]: 0.09 ± 0.05 %IA/g
- Biodistribution, Stomach [1, 7]: <0.05 %IA/g
- Biodistribution, Heart [1, 8]: 0.18 ± 0.03 %IA/g
- Biodistribution, Kidneys [1, 8]: 6.1 ± 0.8 %IA/g
- Biodistribution, Lung [1, 8]: 2.0 ± 0.6 %IA/g
- Biodistribution, Spleen [1, 8]: 0.14 ± 0.05 %IA/g
- Biodistribution, Blood [1, 9]: <0.05 %IA/g
- Biodistribution, Heart [1, 9]: <0.05 %IA/g
- Biodistribution, Kidneys [1, 9]: 0.75 ± 0.07 %IA/g
- Biodistribution, Lung [1, 9]: 0.13 ± 0.02 %IA/g
- Biodistribution, Spleen [1, 9]: 0.06 ± 0.01 %IA/g
- Fraction bound to human blood plasma proteins [2]: 49 ± 2%
- Fraction bound to mouse blood plasma proteins [3]: 42 ± 4%

Structure (SMILES): O=C(O)CN1CCN(CC(=O)O)CCN(CC(=O)NCCCC[C@H](NC(=O)CCCCCCCNC(=O)NCCCC[C@H](N[C@@H](CCc2ccccc2)C(=O)O)C(=O)N2CCC[C@H]2C(=O)O)C(=O)O)CCN(CC(=O)O)CC1 [[^67Ga]Ga-DOTA-LIS-02, metal not drawn]
- tissue uptake at 1 h ([1]; CD1/nude (Crl:CD1-Foxn nu)): 0.24 ± 0.01 %ID/g
- tissue uptake at 3 h ([1]; CD1/nude (Crl:CD1-Foxn nu)): 0.08 ± 0.03 %ID/g
- tissue uptake at 1 h [1, 10]: 0.14 ± 0.01 %ID/g
- tissue uptake at 3 h [1, 10]: < 0.05 %ID/g
- tissue uptake at 1 h [1, 11]: 14 ± 3 %ID/g
- tissue uptake at 3 h [1, 11]: 16 ± 1 %ID/g
- tissue uptake at 1 h [1, 12]: 0.1 ± 0.03 %ID/g
- tissue uptake at 3 h [1, 12]: < 0.05 %ID/g
- tissue uptake at 1 h [1, 13]: 0.18 ± 0.04 %ID/g
- tissue uptake at 3 h [1, 13]: < 0.05 %ID/g
- tissue uptake at 1 h [1, 14]: 0.16 ± 0.05 %ID/g
- tissue uptake at 3 h [1, 15]: < 0.05 %ID/g
- tissue uptake at 1 h [1, 16]: 0.2 ± 0.06 %ID/g
- tissue uptake at 3 h [1, 16]: < 0.05 %ID/g
- tissue uptake at 1 h [1, 17]: 6.3 ± 1 %ID/g
- tissue uptake at 3 h [1, 17]: 1.1 ± 0.2 %ID/g
- tissue uptake at 1 h [1, 18]: 2.4 ± 0.7 %ID/g
- tissue uptake at 3 h [1, 18]: 0.21 ± 0.05 %ID/g
- tissue uptake at 3 h [1, 19]: 0.05 ± 0.01 %ID/g
- fraction unbound at 30 min, 0.1 µM [4, 20]: 0.5 ± 0.01
- fraction unbound at 30 min, 0.1 µM [4, 21]: 0.54

Structure (SMILES): O=C(O)CN1CCN(CC(=O)O)CCN(CC(=O)NCCCC[C@H](NC(=O)CCCCCNC(=O)NCCCC[C@H](N[C@@H](CCc2ccccc2)C(=O)O)C(=O)N2CCC[C@H]2C(=O)O)C(=O)O)CCN(CC(=O)O)CC1 [[^67Ga]Ga-DOTA-LIS-01, metal not drawn]
- fraction unbound at 30 min, 0.1 µM [4, 20]: 0.55
- fraction unbound at 30 min, 0.1 µM [4, 21]: 0.54
- logD [5]: -5.47 ± 0.17

Structure (SMILES): O=C(O)CN1CCN(CC(=O)O)CCN(C(CCC(=O)NCCCC[C@H](NC(=O)CCCCCCCNC(=O)NCCCC[C@H](N[C@@H](CCc2ccccc2)C(=O)O)C(=O)N2CCC[C@H]2C(=O)O)C(=O)O)C(=O)O)CC1 (stereo partly shown) [[^67Ga]Ga-NODAGA-LIS-02, metal not drawn]
- tissue uptake at 1 h ([1]; CD1/nude (Crl:CD1-Foxn nu)): 0.08 ± 0.01 %ID/g
- tissue uptake at 3 h ([1]; CD1/nude (Crl:CD1-Foxn nu)): < 0.05 %ID/g
- tissue uptake at 1 h [1, 10]: < 0.05 %ID/g
- tissue uptake at 3 h [1, 10]: < 0.05 %ID/g
- tissue uptake at 1 h [1, 11]: 3.6 ± 0.9 %ID/g
- tissue uptake at 3 h [1, 11]: 5.2 ± 0.5 %ID/g
- tissue uptake at 1 h [1, 22]: 23 ± 6 %ID/g
- tissue uptake at 3 h [1, 22]: 2.3 ± 1 %ID/g
- tissue uptake at 1 h [1, 23]: 18 ± 1 %ID/g
- tissue uptake at 3 h [1, 23]: 9.6 ± 1.2 %ID/g
- tissue uptake at 1 h [1, 12]: 0.11 ± 0.12 %ID/g
- tissue uptake at 3 h [1, 12]: < 0.05 %ID/g
- tissue uptake at 1 h [1, 13]: < 0.05 %ID/g
- tissue uptake at 3 h [1, 13]: < 0.05 %ID/g
- tissue uptake at 1 h [1, 14]: 0.31 ± 0.18 %ID/g
- tissue uptake at 3 h [1, 14]: 0.15 ± 0.1 %ID/g
- tissue uptake at 3 h [1, 15]: < 0.05 %ID/g
- tissue uptake at 1 h [1, 16]: < 0.05 %ID/g
- tissue uptake at 3 h [1, 16]: < 0.05 %ID/g
- tissue uptake at 1 h [1, 17]: 1.7 ± 0.6 %ID/g
- tissue uptake at 3 h [1, 17]: 0.49 ± 0.13 %ID/g
- tissue uptake at 1 h [1, 18]: 0.63 ± 0.06 %ID/g
- tissue uptake at 3 h [1, 18]: 0.11 ± 0.04 %ID/g
- tissue uptake at 1 h [1, 19]: < 0.05 %ID/g
- tissue uptake at 3 h [1, 19]: < 0.05 %ID/g
- fraction unbound at 30 min, 0.1 µM [4, 20]: 0.46
- fraction unbound at 30 min, 0.1 µM [4, 21]: 0.51
- logD [5]: -5.04 ± 0.09

Structure (SMILES): O=C(O)CN1CCN(CC(=O)O)CCN(CC(=O)NCCCC[C@H](NC(=O)CCCCCCCNC(=O)NCCCC[C@H](N[C@@H](CCc2ccccc2)C(=O)O)C(=O)N2CCC[C@H]2C(=O)O)C(=O)O)CCN(CC(=O)O)CC1 [[^67Ga]Ga-DOTA-LIS-02] [metal not drawn]
- Biodistribution, Intestines [1, 7]: 0.22 ± 0.90 %IA/g
- Biodistribution, Liver [1, 7]: 0.76 ± 0.13 %IA/g
- Biodistribution, Spleen [1, 8]: 0.51 ± 0.65 %IA/g
